This note sets out measurements from the RNAGym collection of RNA variant scans (doi:10.1073/pnas.2313332121).

The labels stand for the following.
B1: TPR t1 (parent)
chain: GACCAAUCUGCCCUCAGAGCUCGAGAACAUCUUCGGAUGCAGAGGAGGCAGGCUUCGGUGGCGCGAUAGCGCCAACGUCCUCAACCUCCAAUGCAUCCCACCACAUGAUGAUGCCUGAAGAGCCUUGGUUUUUUG

The data set covers variants of B1. The data set is described as follows: polymerase ribozyme fitness, log enrichment relative to wild type (log ratio); higher = more active; in vitro selection for triplet polymerase activity. In a few lines:
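PCR was used to build mutant libraries for each subunit of a heterodimeric triplet polymerase ribozyme, which were then transcribed. A single in vitro selection round, in triplicate, used a frozen incubation at −7 °C and recovered extended constructs by gel excision, streptavidin beads and RT-PCR. Fitness is the logarithm of genotype enrichment relative to wild-type enrichment, averaged over replicates with inverse-variance weights. The logarithm is base 2, and after Illumina sequencing only genotypes with ≥10 input reads and ≥1 read per output were kept.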
With GACCAAUCUGCCCUCAGAGCGCGAGAACAUCUUCGGAUGCAGAGGAGGCUGGCUUCGGUGGCGCGAUAACGCCAACGUCCUCAACCUCCAAUGCAUCCCACCACAUGGUAAGGCCUGAAGAGCCUUGGUUUUUUG, the “polymerase ribozyme fitness (log ratio)” value is -6.33.
Take GACCAAUCUGCCCUCGGAGCUCGAGAACAUCUUCGGAUGCAGAGGAGGCAGGCUUCGGUGGCGCGAUAGCGCCAACGUCCUCAACCUCCAACGCAUCCCACAACAUGAUGAUGCCUGAAGAGCCUUGGUUUUUUG: the “polymerase ribozyme fitness (log ratio)” value is -5.14.
Turning to GACCAAUCAGCCCUCAGAGCUCGAGAACAUCUUCGGAUGCAGAGGAGGCAGUCUUCGGUGGCGCGAUAGCGCCAACGUCCUCAACCUUCAAUGCAUCCCACCACAUGAUGAUGCCUGAAGAGCAUUGGUUUUUUG, the “polymerase ribozyme fitness (log ratio)” value is 0.944.
As for GACCAAUCUGCCCUCAGAGCUCGAGAACAUCCUCGGAUGCAGAAGAGGCAGGCUUCGGUGUCGCGAUAGCGCCAACGUCCUCAACCUCCAAUGCAUCCCACCACAUGAUGAUGCCUGAAGAGCCUUGGUUGUUUG, the “polymerase ribozyme fitness (log ratio)” value is -0.948.
With GACGAAUCUGCCCUCAGAGCUCGAGAACAUCUUCGGAUGCAGAGGAGGCAGGCUUCGGUGGCGCGAUAGCGCCAACGUCCUCAACCUCCAAUGCAUCCCACCACAUGAUGAUGCCUGAAGAGCAUUGGUUUUUUG, the “polymerase ribozyme fitness (log ratio)” value was 0.669.
The value for GACCAAUCUGCCCUCAGAGCUCGAGAAGAUCUUCGGAUGCAGAGGAGGCAGGCUUCGGUGGCGCGAUAGCUCCAACGUCCUCAACCUCCAAUGCAUCCCACCACAUGAUGAUGCCUGAAGAGCCUUGGUUUUUUG was -2.39; that for GACCAAUCUGCCCUCAGAGCUCGAGAACAUCUUCGGAUGCAGAGGAGGCAGGCUUCGGUGGCGCGAUAGCGACAACGUCCUCAACCUCCAAUGCAUCCCCCCACAUGAUGAUGCCUGAAAAGCCUUGGUUUUUUG was -0.61.
Take GACCAAUCUGCCCUCAGAGCUCGAGAACAUCUUCGGAUGCAGAGGAUGCAGGCUUUGGUGGCGCGAUAGCGCCAACGUCCUCAACCUCCAAUGCAUCCCACCACAUGAUGAUUCCUGAAGAGCCUUGGUUUUUUG: the “polymerase ribozyme fitness (log ratio)” value was -4.43.
For the variant GGCCAAUCUGCCCUCAGAGCUCGAGAACAUCUUCGGCUGCAGAGGAGGCAGGCUUCGGUGGCGCGAUAGCGCCAACGUCCUCAACCUCCAAUGCAUCCCACCACAUGAUGGUGCCUGAAGAGCCUUGGUUUUUUG, the “polymerase ribozyme fitness (log ratio)” value is -1.49.
As to GACCAAUCUGCCCUCAGAGCUCGAGAACAUCUUCGGAUGUAGAGGAGGCAGGCUUUGGUGGCGCGAUAGCGCCAACGUCCUCAACCUCCUAUGCAUCCCACCACAUGAUGAUGCCUGAAGAGCCUUGGUUUUUUG, the “polymerase ribozyme fitness (log ratio)” value is -2.08.
The value for GACCAAUCUGCCCUCAGAGCUCGAGAACAUCUUCGGAUGCAGAGGCGGCAGGCUUCGGUUGCGCGAUAGCGCCAACGUCCUCAACCUCCAAUGCAUCCCACCACAUGAUGAUGCCUGAAGAGCCUUGGUUUUUUG was -0.736; that for GACCAAUCUGCCGUCAGAGCUCGAGGACAUCUUCGGAUGCAGAGGAGGAAGGCUUCGGUGGCGCGAUAGCGCCAACGUCCUCAACCUCCAAUGCAACCCACCACAUGAUGAUGCCUGAAGAGCCUUGGUUUUUUG was -5.63.
For GACCAAUCUGCCCUCAGAGCUCGAGAACAUCUUCGGAUGUAGAGGAGGCAGGCUUCGGUGGCGCGAUAGCGUCAACGUCCUCAACCUCCAAUGCAUCGCACCACAUGAUGAUGCCUGAAGAGCCUUUGUUCUUUG the value was -6.34; for GACCAAUCUGCCCUCAGAGCUCGAGAACAUCUUCGGAUGCAGAGUAGGCAGUCUUCGGUGCCGCGAUAGCGCCAACGUCCUCAACCUCCAAUGCAUCCCACCACAUGAUGAUGCCUGAAGAGCCUUGGUUUUUUG, -2.32; for GACCAAUCUGCCCUCAGAGCUCGAGAACAUCUUCGGAUGCAGAGGAGGCAGGCUUCGGUGGCGCGAUAGAGCCAACGUCCUCAACCUCCAAUGCAUCCCACCACAUGAUGCUGCCUGAAGAGCCUUGGUUUUUUG, -2.46.
As to GACCAAUCUGCCCUCAGAGCUCGAGAACAUCUUCGGAUGCAGAGGAGGCAGGCUUCGGUGGCACGAUAGCGCCAACGUCCUCAACCUCCAAUGCAUCCCACCACAUGAUGAUGACUGAAGAGCCUUGGUUUUUUG, the “polymerase ribozyme fitness (log ratio)” value was -1.9.
In the case of GACCAAUCUGCCCUCAGAUCUCGAGAACAUCUUCGGAUGCAGAGGAGGCAGGCUUCGGUGGCGCGAUAGCGCCAACGUCCUCAACCACCAAUGCAUCCCACCACACGAUGAUGCCUGUAGAGCCUUGGUUUUUUG, the “polymerase ribozyme fitness (log ratio)” value is -4.56.
For GACCAAUCUGUCCUCAGAGCUCGAGAACGUCUUCGGAUGCAGAGGAGGCAGGUUUCGGUGGCGCGAUAGCGCCAACGUCCUCAACCUCCAAUGCAUCCCACCACAUGAUGAUGCCUGAAGAGCCUUGGUUUUUUG the value was -2.33; for GACCAAUCUGCCCUCAGAGCUCGAGAACAUCUUCGGAUGCAGAGGAGGCAGGCUUCGGUGUCGCGAUAGCGCCAACGUCCUCAACCUCCAAUGCAUCCCACCACAUGAGGAUGCCUGAAGAGCCUUGGUUUUUUG, -4.68.
For GACCAAUCUGCCCUCAGAGCUCGAGAACAUCUUCGGAUGCAGAGACGGCAGGCUUCGUUGUCGCGAUAGCGCCAACGUCCUCAAACUCCAAUGCAUCCCACCACAUGAUGAUGCCUGAAGAGCCUUGGUUUUUUG the value was -4.13; for GACCAAUCUGCCCUCAGAGCUCGAGAACAUCUUCGGAUGCAGAGGGGGCAGGCUUCGCUGGCGCGAUAGCGCCAACGUCCUCAACCUCCAAUGCAUCCUACCACAUGAUGAUGGCUGAAGAGCCUUGGUUUUUUG, -6.59.
For GACCAAUCUGCCCUCAUAGCUCGAGAACAUCUUCGGAUGCAGAGGAGGCAGGCUUCGGUGGCGCGAUAGCGUCAACGUCCUCAACCUCCAAUGCAUCCCACCACAUGAUGAUGCCUGAAGAGCCUUGGUUUUUUG the value was -3.14.
GACAAAUCUGCCCUCAGAGCUCGAGAACAUCUUCGGAUGCAGAGGAGGCAGGCUUCGGUGGCGCGAUAGCGCCAACGCCCUCAACCUCCAAUGCAUCCCACCACAUGAUGAUGCCUGAAGAGCCUUGGUUUUUUG: the “polymerase ribozyme fitness (log ratio)” value is -1.45.
For GACCAAUCUGCCCUCGGAGCUCGAGAACAUCUUCUGAUGCAGAGGAGGGAGGCUUCGGUGGCGCGAUAGCGCCAACGUCCUCAACCUCCAAUGCAUCCCACCACAUGAUGAUGCAUGAGGUGCCUUGGUUUUUUG the value was -4.09; for GACCAAUCGGCCCUCAGAGCUCGAGAACAUCUUCGGAUGCAGAGGAGGCAGGCGUCGCUGGCGCGAUAGCGCUAACGUCCUCAACCUCCAAUGCAUCCCACCACAUGAUGAUGCCUGAAGAGCCUUGGUUUUUUG, -0.715.
As for GACCAAUCUGCCCUCAGAGCUCGAGAACAUCUUCGGAUGCAGAGGAGACAGGCUUCGGUGGCGUGAUAGCGCCAACGUCCUCAACCUCGAAUGCAUCCCACCACAUGAUGAUGUCUGAAGAGCCUGGGUUUUUUG, the “polymerase ribozyme fitness (log ratio)” value is -6.43.
With GACCAAUCUGCCGUCAGAGCUCGAGAACAUCUUCGGAUGCAGAGGAGGCAGGCUUCGGUGGCGCGAUAGCGCCAACGUCCUCAACCUCCCAUGCGUCCCACCACAUGAUGAUGCCUGAAGAGCCUUGGUUUUUUG, the “polymerase ribozyme fitness (log ratio)” value is -3.14.
Consider GACCAAUCUGCCCUCAGCGCUCGAGAACAUCUUCGGAUGCAGAGGAGGCAGACUUCGGUGGCGCGAUAGCGCCAACGUCCUCAACCUCCAAUGCAUCCCACCACAUGAUGAUGCCUGAAGAGCCUUGGUUUUUUG, for which the “polymerase ribozyme fitness (log ratio)” value was -2.7.
For GACCAAUCUGCCCUCAGAGCUCGAGAACAUCUUCGGAUGCAGAGGAGGCAGUCUUCGGUGGCGCGAUAGCGCCAACGUCCUCAACCUCCAAUGCAUCCCACCACAUGAUGAUGCCUGAAAAGCCUUGGUUUUUUG the value was -0.091; for GACCAAUCCGCCCUCAGAGCUCGAGAACAUCUUCGGAUGCGGAGUAGGCAGGCUUCGGUGGCGCGAUAGCGCCAACGUCCUUAAGCUCCAAUGCAUCCCACCACAUGAUGAUGCCUGAAGAGCCUUGGUUUUUUG, -4.04; for GACCAAUCUGCGCUCAGAGCUCGAGAACAUCUUCGGAUGCAGAGGAGGCAGGCUUCGGUGGCGCGAUAGCGCCAACGUACUCAACCUCCACUGCAUCCCACCACAUGAUGAUGCCUGAAGAGCCUUGGUUUUUUG, -2.84.
In the case of GACCAAUCUGCCCUCAGAGCUCGAGAACAUCUUCGGAUGCAGAGGAGGCAGGCUUCGGUGGCGCGAUAGCGCCAACAUCCUCAACCUCCAAUGCAUCCCACCACAUGAUGAUGCCUGAAGUGCCUUGGUUUUUUG, the “polymerase ribozyme fitness (log ratio)” value was found to be 1.88.
In the case of GACCAAUCUGCCCUCAGAGCUCGAGAACAUCUUCGGAUGCGUAGGAGGCAGGCUUCGGUGGCGCGAUAGCGCCAGCGUCCUCAACCUCCUAUGCAUCCCACCACAUGAUGAUGCCUGAAGAGCCUUGCAUUUUUG, the “polymerase ribozyme fitness (log ratio)” value was -4.64.
GACCAAUCUGCCGUCAGAGCUCGAGAACAUCUUCGGAUGAAGAGGAGGCAGGCUUCGGUGGCGCGAUAGCGCCAACGUCCUCAACCUCCAAUGCAUCCCACCACAUGAUGAUGCCUGAAGAGCCUUGGUUUUAUG: the “polymerase ribozyme fitness (log ratio)” value is -2.76.
The value for GACCAAUCUGCCCUCAGAGCUCGAGAACAUCUUCGGAUGCAGAGGAGGCAGGCUUCGGUGACGCGAUAGCGCCCACGUCCUCAACCUCCAAUGCAUCCCACCACAUGAUGAUGCCUGAAGAGCCUUGGUUUUUUG was -1.86; that for GACCAAUCUACCCUCAGAGCUCGAGAACAUCUUCGGAUGCAGAGGAGGCAGGCUUAGGUGGCGCGAUAGCGCCAACGUCCUCAACCUCCAAUGCAUCCCACCACAUGAUGAUGCCUGAAGAGCCUUGGUUUUUUG was 0.127; that for GACCCAUCCGCCCUCAGAGCUCGAGAACAUCUUCGGAUGCAGAGGAGGCAGGCUUCGGUGGCGCGAUAGCGCCAACGUCCUCAACUUCCAAUGCAUCCCUCCACAUGAUGAUGCCUGAAGAGCCUUGGUUUUUUU was -1.74.
For GACCAAUCUGCCCUCAGAGCUCGAGAACAUCUUCGGAUGCAGAGGAGGCAGGCUUCGGUGGCACGAUAGCGCGAACGUCCUCAACCUCCAAUGCAUCCCACCACAUGAUGAUGCCUGAAGAGCCUUGGUUUUUUG the value was -4.71; for GACCAAUCUGCCCUCAGAGCUCGAGAACAUCUUCGGAUGCAGAGGAGGCAGGCUUCGGUGGCGCGAUAGAGCCAACGUCCUCAACCUCCAAUGCAUCUCACCACAUGAUGAUGCCUGAAGAGCCUUGGUGUUUUG, -2.6; for GACCAAUCUGCCUUCAGAGCUCGAGAACAUCUUCGGAUGCAGAGGAGGCAGGCUUCGGUGGCGCGAUAGCGCCAACGUCCUCAACCUCAAAUGCAUCCCACCACAUGAUGAUGCCUGAAGAGCCUUGGUUUUUUG, -1.08.
On to GACCAAUCUGCCCUCAGAGCUCGAGAACAUCUUCGGAUGCAGAGGAGGCAGGCUUCGGUGGCGCGAUAGCGCCAACGUCCUCAACCUCCAAUGCAUCCCACCACAUGAUGAUGCCUGCAGAGCGUUGGUUUUUUG, for which the “polymerase ribozyme fitness (log ratio)” value is -0.56.
For GACCAAUCUGCCCUCACAGCUCGAGAACAUCUUCGGAUGCAGAGGAGGCAGGCUUCGGUGGGGUGAUUGCGCCAACGUCCGCAACCUCCAAUGCAUCCCACCACAUGAUGAUGGCUGAAGAGCCUUGGUUUUUUG the value was -6.46.
